{"source": "paper PMC8826744", "about": "(Microbiology Spectrum, 2022)", "binders": {"B1": {"name": "farletuzumab-IgG1 (antibody, V domains shown)", "VH": "EVQLVESGGGVVQPGRSLRLSCSASGFTFSGYGLSWVRQAPGKGLEWVAMISSGGSYTYYADSVKGRFAISRDNAKNTLFLQMDSLRPEDTGVYFCARHGDDPAWFAYWGQGTPVTVSS", "VL": "DIQLTQSPSSLSASVGDRVTITCSVSSSISSNNLHWYQQKPGKAPKPWIYGTSNLASGVPSRFSGSGSGTDYTFTISSLQPEDIATYYCQQWSSYPYMYTFGQGTKVEIK", "notes": "IgG1; source: CHO-S, transfected, purified (protein A)"}, "B2": {"name": "farletuzumab-FuG1 (antibody, V domains shown)", "VH": "B1 VH", "VL": "B1 VL", "notes": "also called farletuzumab-FuGi"}}, "target": "T1, IgG4-Fc tagged rFOLR1 (Homo sapiens (assumed), UniProt P15328)", "T1 construct": "also called recombinant IgG4-Fc FOLR1; folate receptor alpha-1; source: CHO-S, transfected, purified (protein A)", "assay": "ELISA; IgG4-Fc tagged rFOLR1 (2 ug/mL) coated on 96-well plates overnight; antibodies 50 nM to 0.048 nM, 1 h at 37 C; detected with HRP anti-human IgG1", "conditions": "both partners purified", "data": [{"binder": "B1", "values": [{"measurement": "binding result", "value": "binds"}]}, {"binder": "B2", "values": [{"measurement": "binding result", "value": "binds"}]}]}
